Reference: patent publication US20260116991A1 (HAINAN SIMCERE ZAIMING PHARMACEUTICAL, published 2026)
Like-named read-outs stand apart in the source and are kept apart here.

How the values were obtained:
[1] = target: T1, monkey GPC3-His protein (monkey); experiment: ELISA, monkey GPC3-His coated;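 note: Plate-coated antigen at 1 µg/mL, antibody binding 2 h at 37 °C, detected with HRP-labeled secondary antibody and TMB, absorbance at 450 nm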
T1 construct: Bought recombinant protein; also called monkey GPC3 protein
Method: The specific method is described as follows: The antigen protein was diluted with PBS to a final concentration of 1 μg/mL, and the diluent was added to a 96-well ELISA plate at 50 μL/well. The plate was sealed with a plastic film and incubated at 4° C. overnight, washed twice with PBS the next day, and a blocking solution [PBS+2% (w/w) BSA] was added for blocking at room temperature for 2 h. […] After incubation at 37° C. for 2 h, the plate was washed 3 times with PBS. A horseradish peroxidase (HRP)-labeled secondary antibody (purchased from Merck, Cat. No. AP113P) was added for incubation at 37° C. for 1 h, and the plate was washed 5 times with PBS. A TMB substrate was added at 50 μL/well for incubation at room temperature for 10 min, then a stop solution (1.0M HCl) was added at 50 μL/well. An ELISA plate reader (Multimode Plate Reader, EnSight, purchased from Perkin Elmer) was used to read OD_{450 nm} values, with results as shown in Table 4 to Table 6, FIG. 1A, FIG. 1B, and FIG. 1C.

[2] = target: T2, monkey GPC3 on HEK293T-monkey GPC3 cells (monkey); experiment: FACS on HEK293T-monkey GPC3 cells
T2 construct: whole, on cells
Method: The desired cells were expanded to a logarithmic growth phase in a T-75 cell culture flask, the medium was removed by pipetting, and the cells were washed twice with a PBS buffer, and digested with trypsin. Then a complete medium was added to stop the digestion, and the cells were blown into a single cell suspension. After counting, the cells were centrifuged, and the cell pellet was resuspended with an FACS buffer (PBS+2% fetal bovine serum) to 2×10⁶ cells/mL. The cell resuspension solution was added to a 96-well FACS reaction plate at 50 μl/well, and a chimeric antibody sample to be tested was added at 50 μl/well for incubation at 4° C. for 1 h. […] After the plate was centrifuged and washed 3 times with a PBS buffer, 100 μl of the resulting solution was assayed and analyzed by FACS (FACS Canto™, purchased from BD Biosciences). Data analysis was performed by software (FlowJo) to obtain the mean fluorescence intensity (MFI) of the cells. Then, analysis was performed by software (GraphPad Prism8), data were fitted, and EC₅₀ values were calculated.

[3] = target: T3, human GPC3-His protein (human, UniProt P51654 25-559); experiment: SPR, antibody captured on Protein A chip, human GPC3-His analyte;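 note: measured at 25 °C flow cell, human GPC3-His injected at five concentrations up to 200 nM, 240 s association, up to 600 s dissociation, double-referenced, fitted to Langmuir 1:1 model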
T3 construct: also called human GPC3 protein; not shown: His tag

[4] = target: T1, monkey GPC3-His protein; experiment: SPR, antibody captured on Protein A chip, monkey GPC3-His analyte;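 note: run at 25 °C with 240 s association and up to 600 s dissociation, double-referenced, kinetics fitted to a 1:1 Langmuir binding model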
Method: The flow cell was set at 25° C. The sample block was set at 16° C. Both were pretreated with the running buffer. In each cycle, first, the antibody to be tested was captured using the Protein A chip, and then a single concentration of GPC3 antigen protein was injected. […] The association was determined by injecting different concentrations of human GPC3-His in the solution and maintaining for 240 s, wherein the flow rate was 30 μL/min, and the protein was diluted at a 1:1 dilution ratio from 200 nM to obtain 5 concentrations in total. The dissociation phase was monitored for up to 600 s and triggered by switching from the sample solution to the running buffer. The surface was regenerated by washing with 10 mM glycine solution (pH 1.5) at a flow rate of 30 μL/min for 30 s. The difference in bulk refractive index was corrected by subtracting the responses obtained from the goat anti-human Fc surface. Blank injections (double reference) were also subtracted. To calculate the apparent KD and other kinetic parameters, the Langmuir 1:1 model was used.

[5] = target: T4, monkey GPC3 on HEK293T-monkey GPC3 cells (monkey); experiment: FACS on HEK293T-monkey GPC3 cells; remark: listed apart in the source
T4 construct: whole, on cells

[6] = target: T5, human GPC3-His protein (human, UniProt P51654 25-559, limits assumed); experiment: SPR, antibody captured on Protein A chip, human GPC3-His injected, 1:1 Langmuir model;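 note: flow cell at 25 °C, antigen injected for 240 s at five twofold dilutions starting at 200 nM, dissociation followed up to 600 s, double-referenced sensorgrams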
T5 construct: also called human GPC3 protein; not shown: His tag

B1: F4.26.1 (antibody, human IgG1, kappa, V domains shown)
VH: QVQLKQSGPGLVQPSQSLSITCTVSGFSLTSYGVHWVRQSPGKGLEWLGVIWSSGNTDYNAVLISRLSIKKDDSKSQVFFKMNSPQVDDSAIYYCGRNGGWLLRGFMDFWGQGTSVTVSS
VL: DVVMTQTPLSLPVSLGDQASISCRSSQSLLHSNGNTYLHWYLQRSGQSPNLLIYKVSNRFSGVPDRFSGGGSGTDFTLKISRVEAEDLGIYFCSQSTHVPWTFGGGTKLEIKR
notes: Human-murine chimeric antibody
OD450 at 0.0001 nM [1]: 0.27 OD450
OD450 at 0.001 nM [1]: 0.07 OD450
OD450 at 0.01 nM [1]: 0.18 OD450
OD450 at 0.1 nM [1]: 0.89 OD450
OD450 at 1 nM [1]: 1.38 OD450
OD450 at 10 nM [1]: 1.88 OD450
OD450 at 100 nM [1]: 1.5 OD450
EC50 [2]: 1.21 nM
Max MFI [2]: 50500 MFI
Kd [3]: 2.34 nM
koff [3]: 0.000461 s⁻¹
kon [3]: 197000 M⁻¹ s⁻¹
Kd [4]: 1.38 nM
koff [4]: 0.000587 s⁻¹
kon [4]: 425000 M⁻¹ s⁻¹

B2: hAb001H1L1b (antibody, human IgG1, V domains shown)
VH: EVQLVESGGGLVQPGGSLRLSCAASGFSFNTNAMNWVRQAPGKGLEWVGRIRSKSNNYATYYADSVKDRFTISRDDSKNSLYLQMNSLKTEDTAVYYCVRDGYYVLFAYWGQGTLVTVSS
VL: DIVMTQTPLSLPVTPGEPASISCRFSQSIVNSNANTYLEWFLQKPGQSPQLLIYKVSNRFSGVPDRFSGSGSGTDFTLKISRVEAEDVGVYYCFQGSHVPFTFGQGTKLEIK
notes: Humanized F2.169.2
EC50 [5]: 1.54 nM
Max MFI [5]: 32900 MFI
Kd [6]: 19.8 nM
koff [6]: 0.937 s⁻¹
kon [6]: 4.74e+07 M⁻¹ s⁻¹

B3: hAb003LH2L1b (antibody, human IgG1, V domains shown)
VH: EVQLVQSGAEVKKPGSSVKVSCKASGYRFTDYEMHWVRQAPGQGLEWMGTIDPETGNTAYTQKFMDRVTITADKSTSTAYMELSSLRSEDTAVYYCTRGYSFTYWGQGTLVTVSS
VL: DIVMTQTPLSLPVTPGEPASISCRSSQNIVHSNRNTYLQWYLQKPGQSPQLLIFKVSNRFSGVPDRFSGSGSGTDFTLKISRVEAEDVGVYYCFQGSHVPFTFGQGTKLEIK
notes: Humanized F2.154.1
EC50 [5]: 0.793 nM
Max MFI [5]: 31100 MFI
Kd [6]: 2.08 nM
koff [6]: 0.000501 s⁻¹
kon [6]: 240000 M⁻¹ s⁻¹

B4: hAb003LH1L1 (antibody, human IgG1, V domains shown)
VH: EVQLVQSGAEVKKPGSSVKVSCKASGYTFSDYEMHWVRQAPGQGLEWMGTIDPETGNTAYTQKFMDRVTITADKSTSTAYMELSSLRSEDTAVYYCTRGYSFTYWGQGTLVTVSS
VL: DIVMTQTPLSLPVTPGEPASISCRSSQNIVHSNGNTYLQWYLQKPGQSPQLLIFKVSNRFSGVPDRFSGSGSGTDFTLKISRVEAEDVGVYYCFQGSHVPFTFGQGTKLEIK
notes: Humanized F2.154.1
EC50 [5]: 1.56 nM
Max MFI [5]: 28200 MFI
Kd [6]: 1.93 nM
koff [6]: 0.000453 s⁻¹
kon [6]: 234000 M⁻¹ s⁻¹

B5: hAb003LH1L1b (antibody, human IgG1, V domains shown)
VH: EVQLVQSGAEVKKPGSSVKVSCKASGYTFSDYEMHWVRQAPGQGLEWMGTIDPETGNTAYTQKFMDRVTITADKSTSTAYMELSSLRSEDTAVYYCTRGYSFTYWGQGTLVTVSS
VL: DIVMTQTPLSLPVTPGEPASISCRSSQNIVHSNRNTYLQWYLQKPGQSPQLLIFKVSNRFSGVPDRFSGSGSGTDFTLKISRVEAEDVGVYYCFQGSHVPFTFGQGTKLEIK
notes: Humanized F2.154.1
EC50 [5]: 1.46 nM
Max MFI [5]: 28400 MFI
Kd [6]: 1.68 nM
koff [6]: 0.000415 s⁻¹
kon [6]: 246000 M⁻¹ s⁻¹

B6: hAb001H2L1b (antibody, human IgG1, V domains shown)
VH: EVQLVESGGGLVQPGGSLRLSCAASGFSFNTNAMNWVRQAPGKGLEWVGRIRSKSNNYATYYADSVKDRFTISRDDSKSSLYLQMNSLKTEDTAVYYCVRDGYYVLFAYWGQGTLVTVSS
VL: DIVMTQTPLSLPVTPGEPASISCRFSQSIVNSNANTYLEWFLQKPGQSPQLLIYKVSNRFSGVPDRFSGSGSGTDFTLKISRVEAEDVGVYYCFQGSHVPFTFGQGTKLEIK
notes: Humanized F2.169.2
EC50 [5]: 1.41 nM
Max MFI [5]: 33100 MFI
Kd [6]: 19.2 nM
koff [6]: 0.0101 s⁻¹
kon [6]: 526000 M⁻¹ s⁻¹

B7: hAb001H1aL1 (antibody, human IgG1, V domains shown)
VH: EVQLVESGGGLVQPGGSLRLSCAASGFSFNTNAMNWVRQAPGKGLEWVGRIRSKSNNYATYYADSVKGRFTISRDDSKNSLYLQMNSLKTEDTAVYYCVRDGYYVLFAYWGQGTLVTVSS
VL: DIVMTQTPLSLPVTPGEPASISCRFSQSIVNSNGNTYLEWFLQKPGQSPQLLIYKVSNRFSGVPDRFSGSGSGTDFTLKISRVEAEDVGVYYCFQGSHVPFTFGQGTKLEIK
notes: Humanized F2.169.2
EC50 [5]: 1 nM
Max MFI [5]: 34000 MFI
Kd [6]: 27 nM
koff [6]: 0.0701 s⁻¹
kon [6]: 2.6e+06 M⁻¹ s⁻¹

B8: hAb001H1aL1b (antibody, human IgG1, V domains shown)
VH: EVQLVESGGGLVQPGGSLRLSCAASGFSFNTNAMNWVRQAPGKGLEWVGRIRSKSNNYATYYADSVKGRFTISRDDSKNSLYLQMNSLKTEDTAVYYCVRDGYYVLFAYWGQGTLVTVSS
VL: DIVMTQTPLSLPVTPGEPASISCRFSQSIVNSNANTYLEWFLQKPGQSPQLLIYKVSNRFSGVPDRFSGSGSGTDFTLKISRVEAEDVGVYYCFQGSHVPFTFGQGTKLEIK
notes: Humanized F2.169.2
EC50 [5]: 0.96 nM
Max MFI [5]: 32600 MFI
Kd [6]: 109 nM
koff [6]: 0.0167 s⁻¹
kon [6]: 153000 M⁻¹ s⁻¹

B9: F4.13.7 (antibody, human IgG1, kappa, V domains shown)
VH: QVQLQQPGAELVKPGASVKLSCKASGYTFTNNWVHWVKQRPGQGLEWTGMIHPDSGSTIYNEKFQSKATLTVDKSSSTAYMQLSSLTSEDSAVYYCARGYYDSSSYYAMDYWGQGTSVTVSS
VL: NIQMTQTTSSLSASLGDRVTISCSASQGIFNYLNWYQQKPDGTVKLLIYYTSSLHSGVPSRFSGSGSGTDYSLTISNLEPEDIATYYCQQYSKLPWTFGGGTKLEIKR
notes: as for B1
OD450 at 0.0001 nM [1]: 0.05 OD450
OD450 at 0.001 nM [1]: 0.08 OD450
OD450 at 0.01 nM [1]: 0.36 OD450
OD450 at 0.1 nM [1]: 1.55 OD450
OD450 at 1 nM [1]: 2.34 OD450
OD450 at 10 nM [1]: 2.4 OD450
OD450 at 100 nM [1]: 2.44 OD450
EC50 [2]: 1.1 nM
Max MFI [2]: 44100 MFI
Kd [3]: 32.3 nM
koff [3]: 0.00156 s⁻¹
kon [3]: 48400 M⁻¹ s⁻¹
Kd [4]: 31.4 nM
koff [4]: 0.00264 s⁻¹
kon [4]: 84000 M⁻¹ s⁻¹

B10: F3.81.19 (antibody, human IgG1, kappa, V domains shown)
VH: QVQLQQSGAELVRPGASVKLSCKASGYTFTDYEMHWVKQTPVHGLEWIGTIDPETGNTAYNQKFKGKATLTADKSSSTAYMELRSLTSEDSAVYYCTRPYSLTYWGQGTLVTVSA
VL: DVLLTQTPLSLPVSLGDQASISCRSSQSFVHSNGDTYLQWYLQKPGQSPKLLIYKVSNRFSGVPDRFSGSGSGTDFTLKISRVEAEDLGVYYCFQGSHVPYTFGSGTKLEIKR
notes: as for B1
OD450 at 0.0001 nM [1]: 0.05 OD450
OD450 at 0.001 nM [1]: 0.06 OD450
OD450 at 0.01 nM [1]: 0.16 OD450
OD450 at 0.1 nM [1]: 0.62 OD450
OD450 at 1 nM [1]: 1.96 OD450
OD450 at 10 nM [1]: 2.55 OD450
OD450 at 100 nM [1]: 2.49 OD450
EC50 [2]: 2.58 nM
Max MFI [2]: 106000 MFI
Kd [3]: 0.545 nM
koff [3]: 0.000231 s⁻¹
kon [3]: 424000 M⁻¹ s⁻¹
Kd [4]: 0.415 nM
koff [4]: 0.000261 s⁻¹
kon [4]: 631000 M⁻¹ s⁻¹

B11: F4.18.4 (antibody, human IgG1, kappa, V domains shown)
VH: QVQLHQSGAEMAKPGASVNLSCKTSGFTFTDYGISWVKQRTRQGLEWIGDIYPRHINIYYNEKFKDKATLTADRSSSTAYMELRSMTSEDSAVYFCARRGTTGRGALDYWGQGTSLTVSS
VL: DILLTQSPAILSVSPGERVSFSCRASQSIGTSIHWYQQRTNGSPRLLIKYAFESISGIPSRFGGSGSRTDFTLTINSVESEDIADYYCQQTYNWPYTFGGGTKLEIKR
notes: as for B1
OD450 at 0.0001 nM [1]: 0.14 OD450
OD450 at 0.001 nM [1]: 0.12 OD450
OD450 at 0.01 nM [1]: 0.14 OD450
OD450 at 0.1 nM [1]: 0.85 OD450
OD450 at 1 nM [1]: 0.77 OD450
OD450 at 10 nM [1]: 1.32 OD450
OD450 at 100 nM [1]: 1.9 OD450
EC50 [2]: 0.89 nM
Max MFI [2]: 52600 MFI
Kd [3]: 5.08 nM
koff [3]: 0.000443 s⁻¹
kon [3]: 87100 M⁻¹ s⁻¹
Kd [4]: 4.65 nM
koff [4]: 0.000552 s⁻¹
kon [4]: 119000 M⁻¹ s⁻¹

B12: F4.21.16 (antibody, human IgG1, kappa, V domains shown)
VH: DVQLQESGPGLVKPSQSLSLTCSVTGYSITSGYYWNWIRQFPGNKLEWMGYISYDVTVNYNPSLKNRISITRDTSKNQFFLKLNSVTTEDTATYYCATITSVASMDHWGQGTSVTVSS
VL: DILMTQTPLSLPVSLGDQASISCRSSQNIVHRNGNTYLEWYLQKPGQSPKLLLYKVSNRFSGVPDRFSGSGSGTDFTLKISRVEAEDLGIYYCFQGSHFPFTFGSGTKLEIKR
notes: as for B1
OD450 at 0.0001 nM [1]: 0.04 OD450
OD450 at 0.001 nM [1]: 0.06 OD450
OD450 at 0.01 nM [1]: 0.05 OD450
OD450 at 0.1 nM [1]: 0.1 OD450
OD450 at 1 nM [1]: 1.41 OD450
OD450 at 10 nM [1]: 1.65 OD450
OD450 at 100 nM [1]: 1.08 OD450
EC50 [2]: 3.25 nM
Max MFI [2]: 50900 MFI
Kd [3]: 6.58 nM
koff [3]: 0.000267 s⁻¹
kon [3]: 40600 M⁻¹ s⁻¹
Kd [4]: 7.81 nM
koff [4]: 0.000303 s⁻¹
kon [4]: 38800 M⁻¹ s⁻¹
